# Experimental data reported in the Human Domainome abundance scans (Beltran et al. 2025).
# ± gives the uncertainty stated by the source.
# B1: Bromodomain adjacent to zinc finger domain protein 2B, residues 1927 to 1982; numbered along this chain, Q9UIF8 (parent)
# chain: KSIMKVYCQICRKGDNEELLLLCDGCDKGCHTYCHRPKITTIPDGDWFCPACIAKA
# Variants of: B1
# Assay: abundance fitness (aPCA) (normalised: wild type 0, dead -1); higher = more abundant; growth selection in yeast, the domain comes from the species named
# Details: Homo sapiens
row,Variant,abundance fitness
1,KSIMKVYCQICRKGDNEELLLLCDGCDKGCHTYCHRPKITTIPDGDWFCPKCIAKA [A51K],-0.162 ± 0.13
2,KSIMKVYCQICRKGDNEELLLLCDGCDKGCHTYCHRPKITTIPDGDWFCPLCIAKA [A51L],-0.045 ± 0.086
3,KSIMKVYCQICRKGDNEELLLLCDGCDKGCHTYCHRPKITTIPDGDWFCPMCIAKA [A51M],0.022 ± 0.11
4,KSIMKVYCQICRKGDNEELLLLCDGCDKGCHTYCHRPKITTIPDGDWFCPNCIAKA [A51N],-0.064 ± 0.17
5,KSIMKVYCQICRKGDNEELLLLCDGCDKGCHTYCHRPKITTIPDGDWFCPQCIAKA [A51Q],-0.169 ± 0.15
6,KSIMKVYCQICRKGDNEELLLLCDGCDKGCHTYCHRPKITTIPDGDWFCPRCIAKA [A51R],-0.087 ± 0.069
7,KSIMKVYCQICRKGDNEELLLLCDGCDKGCHTYCHRPKITTIPDGDWFCPSCIAKA [A51S],-0.024 ± 0.082
8,KSIMKVYCQICRKGDNEELLLLCDGCDKGCHTYCHRPKITTIPDGDWFCPTCIAKA [A51T],0.016 ± 0.12
9,KSIMKVYCQICRKGDNEELLLLCDGCDKGCHTYCHRPKITTIPDGDWFCPVCIAKA [A51V],-0.095 ± 0.094
10,KSIMKVYCQICRKGDNEELLLLCDGCDKGCHTYCHRPKITTIPDGDWFCPWCIAKA [A51W],-0.175 ± 0.1
11,KSIMKVYCQICRKGDNEELLLLCDGCDKGCHTYCHRPKITTIPDGDWFCPYCIAKA [A51Y],-0.346 ± 0.21
12,KSIMKVYCQICRKGDNEELLLLCDGCDKGCHTYCHRPKITTIPDGDWFCPAAIAKA [C52A],-0.661 ± 0.11
13,KSIMKVYCQICRKGDNEELLLLCDGCDKGCHTYCHRPKITTIPDGDWFCPADIAKA [C52D],-0.43 ± 0.18
14,KSIMKVYCQICRKGDNEELLLLCDGCDKGCHTYCHRPKITTIPDGDWFCPAEIAKA [C52E],-0.581 ± 0.1
15,KSIMKVYCQICRKGDNEELLLLCDGCDKGCHTYCHRPKITTIPDGDWFCPAFIAKA [C52F],-0.736 ± 0.21
16,KSIMKVYCQICRKGDNEELLLLCDGCDKGCHTYCHRPKITTIPDGDWFCPAGIAKA [C52G],-0.544 ± 0.067
17,KSIMKVYCQICRKGDNEELLLLCDGCDKGCHTYCHRPKITTIPDGDWFCPAHIAKA [C52H],-0.392 ± 0.17
18,KSIMKVYCQICRKGDNEELLLLCDGCDKGCHTYCHRPKITTIPDGDWFCPAKIAKA [C52K],-0.486 ± 0.15
19,KSIMKVYCQICRKGDNEELLLLCDGCDKGCHTYCHRPKITTIPDGDWFCPALIAKA [C52L],-0.891 ± 0.12
20,KSIMKVYCQICRKGDNEELLLLCDGCDKGCHTYCHRPKITTIPDGDWFCPAMIAKA [C52M],-0.487 ± 0.26
21,KSIMKVYCQICRKGDNEELLLLCDGCDKGCHTYCHRPKITTIPDGDWFCPANIAKA [C52N],-0.523 ± 0.19
22,KSIMKVYCQICRKGDNEELLLLCDGCDKGCHTYCHRPKITTIPDGDWFCPAPIAKA [C52P],-0.833 ± 0.16
23,KSIMKVYCQICRKGDNEELLLLCDGCDKGCHTYCHRPKITTIPDGDWFCPAQIAKA [C52Q],-0.531 ± 0.15
24,KSIMKVYCQICRKGDNEELLLLCDGCDKGCHTYCHRPKITTIPDGDWFCPARIAKA [C52R],-0.581 ± 0.069

row,Variant,abundance fitness
1,KSIMKVYCQICRKGDNEELLLLCDGCDKGCHTYCHRPKITTIPDGDWFCPASIAKA [C52S],-0.652 ± 0.091
2,KSIMKVYCQICRKGDNEELLLLCDGCDKGCHTYCHRPKITTIPDGDWFCPATIAKA [C52T],-0.539 ± 0.13
3,KSIMKVYCQICRKGDNEELLLLCDGCDKGCHTYCHRPKITTIPDGDWFCPAVIAKA [C52V],-0.905 ± 0.13
4,KSIMKVYCQICRKGDNEELLLLCDGCDKGCHTYCHRPKITTIPDGDWFCPAWIAKA [C52W],-0.971 ± 0.12
5,KSIMKVYCQICRKGDNEELLLLCDGCDKGCHTYCHRPKITTIPDGDWFCPAYIAKA [C52Y],-0.666 ± 0.13
6,KSIMKVYCQICRKGDNEELLLLCDGCDKGCHTYCHRPKITTIPDGDWFCPACAAKA [I53A],-0.037 ± 0.074
7,KSIMKVYCQICRKGDNEELLLLCDGCDKGCHTYCHRPKITTIPDGDWFCPACCAKA [I53C],-0.051 ± 0.12
8,KSIMKVYCQICRKGDNEELLLLCDGCDKGCHTYCHRPKITTIPDGDWFCPACDAKA [I53D],-0.006 ± 0.12
9,KSIMKVYCQICRKGDNEELLLLCDGCDKGCHTYCHRPKITTIPDGDWFCPACEAKA [I53E],0.016 ± 0.084
10,KSIMKVYCQICRKGDNEELLLLCDGCDKGCHTYCHRPKITTIPDGDWFCPACFAKA [I53F],-0.072 ± 0.24
11,KSIMKVYCQICRKGDNEELLLLCDGCDKGCHTYCHRPKITTIPDGDWFCPACGAKA [I53G],-0.03 ± 0.065
12,KSIMKVYCQICRKGDNEELLLLCDGCDKGCHTYCHRPKITTIPDGDWFCPACHAKA [I53H],-0.083 ± 0.15
13,KSIMKVYCQICRKGDNEELLLLCDGCDKGCHTYCHRPKITTIPDGDWFCPACKAKA [I53K],-0.089 ± 0.14
14,KSIMKVYCQICRKGDNEELLLLCDGCDKGCHTYCHRPKITTIPDGDWFCPACLAKA [I53L],0.043 ± 0.088
15,KSIMKVYCQICRKGDNEELLLLCDGCDKGCHTYCHRPKITTIPDGDWFCPACMAKA [I53M],0.021 ± 0.11
16,KSIMKVYCQICRKGDNEELLLLCDGCDKGCHTYCHRPKITTIPDGDWFCPACNAKA [I53N],-0.242 ± 0.15
17,KSIMKVYCQICRKGDNEELLLLCDGCDKGCHTYCHRPKITTIPDGDWFCPACPAKA [I53P],0.118 ± 0.15
18,KSIMKVYCQICRKGDNEELLLLCDGCDKGCHTYCHRPKITTIPDGDWFCPACRAKA [I53R],-0.087 ± 0.078
19,KSIMKVYCQICRKGDNEELLLLCDGCDKGCHTYCHRPKITTIPDGDWFCPACSAKA [I53S],-0.033 ± 0.092
20,KSIMKVYCQICRKGDNEELLLLCDGCDKGCHTYCHRPKITTIPDGDWFCPACTAKA [I53T],-0.225 ± 0.1
21,KSIMKVYCQICRKGDNEELLLLCDGCDKGCHTYCHRPKITTIPDGDWFCPACVAKA [I53V],-0.004 ± 0.07
22,KSIMKVYCQICRKGDNEELLLLCDGCDKGCHTYCHRPKITTIPDGDWFCPACWAKA [I53W],-0.179 ± 0.1
23,KSIMKVYCQICRKGDNEELLLLCDGCDKGCHTYCHRPKITTIPDGDWFCPACYAKA [I53Y],-0.026 ± 0.16
24,KSIMKVYCQICRKGDNEELLLLCDGCDKGCHTYCHRPKITTIPDGDWFCPACICKA [A54C],-0.095 ± 0.15
